Experiment [1] addresses T1, human EGFRvIII expressed on cells (human, UniProt P00533 298-1210).
T1 construct: the F98-npEGFRvIII line was obtained from ATCC and its construct is not described; also called F98-npEGFRvIII; F98-EGFRvIII
Put plainly: flow cytometry, F98-npEGFRvIII cells.

Experiment [2] deals with T2, 8-histidine tagged recombinant wild-type protein EGFRwt (UniProt P00533 25-645, limits assumed).
T2 construct: not shown: 8-histidine tag
Put plainly: SPR, captured by anti-mouse Fc. Background: In SPR one partner is held on a chip, and binding of the other changes the refractive index at the surface.

Experiment [3] concerns the target T1, human EGFRvIII expressed on cells. Put plainly: flow cytometry, F98-npEGFRvIII against F98, F98-EGFRwt and A431 cells. Background: Flow cytometry measures light scatter and fluorescence of single cells or particles in a stream.
Experiment [4] concerns the target T3, Monomeric 8-histidine tagged human EGFRvIII extracellular domain (human, UniProt P00533 298-645).
T3 construct: Analyte in all SPR assays; not shown: 8-histidine tag
Put plainly: SPR, captured by anti-mouse Fc, 37 C. The source says:
To generate human antibodies against EGFRvIII, transgenic AlivaMab mice (Ablexis LLC, San Francisco, Calif.) were immunized with alternating schedule of paraformaldehyde-fixed rat glioblastoma cell line expressing EGFRvIII, F98-npEGFRvIII (American Type Culture Collection, Manassas, Va.) and peptides (SEQ ID NO: 227: […]) directed to the junction region in EGFRvIII. Hybridomas were generated using standard techniques. To determine the binding affinity and specificity of these hybridomas to EGFRvIII, antibodies in culture supernatants were captured by anti-mouse Fc using Biacore™ T200 biosensor equipped with anti-mouse Fc coupled CM4 sensor chips (Biacore™ AB, Uppsala, Sweden—now GE Healthcare). Monomeric 8-histidine tagged human EGFRvIII extracellular domain was then injected as the analyte at 10-fold dilution series starting with top concentration 1000 nM. Affinity of anti-EGFRvIII antibodies towards human EGFRvIII was measured at 37° C.

For another experiment, the target named is T4, EGFR-mFc (human; mouse, UniProt P00533 25-645).
T4 construct: extracellular domain; Produced in HEK293 cells; also called recombinant EGFR-mFc; not shown: mouse IgG1-Fc domain
Put plainly: flow cytometry, CAR T cells stained with mFc fusion protein, Day 4. The source says: To determine target binding specificity of the CARs, recombinant proteins EGFRvII-mFc and EGFR-mFc, which comprise of the extracellular domain of either human EGFRvIII or human wild-type EGFR, respectively, fused with mouse IgG1-Fc domain, were produced in HEK293 cells. […]

For experiment [5], the target named is T3, Monomeric 8-histidine tagged human …. The experiment in a line: SPR, scFv-Fc captured by anti-human Fc, 37 C. How it is done: The scFv fragment was then fused to human IgG1 Fc moiety to facilitate recombinant expression and purification. Affinities of the scFv-Fc fusion proteins were measured at 37° C. on a surface plasmon resonance Biacore™ T200 biosensor equipped with an anti-human Fc coupled CM4 sensor chip (GE Healthcare Inc., Piscataway, N.J.) as described above. scFv-Fc proteins were captured by anti-human Fc. Monomeric 8-histidine tagged human EGFRvIII extracellular domain was then injected as the analyte at 10-fold dilution series starting at 1000 nM.

The target in experiment [6] is T2, 8-histidine tagged recombinant …. The experiment in a line: SPR, captured by anti-human Fc, 25 C.

B1: 20E12 (antibody, V domains shown)
VH: EVNLVESGGGLVKPGGSLRLSCEASGFTFSYAWMSWVRQAPGKGLEWVGRIKSIADGGATDYAAPVRNRFTISRDDSRNTLYLEMHSLKTEDTAVYYCTTIPGNDAFDMWGQGTMVTVSS
VL: DIVLTQSPLSLSVTPGEPASISCRSSQSLLYSNGKNYLDWFLHKPGQSPQLLIYLGSNRASGVPDRFSGSGSGIDFILKISRVEAEDVGVYYCMQAQQTPITFGQGTRLEIK
notes: Hybridoma supernatant (AlivaMab mouse); captured/detected via mouse Fc
For orientation: Kd means the concentration at which binding is half-saturated. One may read the koff as the rate constant with which the complex falls apart. As a reminder, the kon is the rate constant with which the complex forms. The low end stands for slower complex formation, the high end for faster complex formation. Take B1: in experiment [1], the “% positive” value was found to be 97.9% and the MFI came to 3980. Also, the binding result in experiment [2] was “no binding (tested: 1000 nM)”. In addition, in experiment [3], the “fold MFI on EGFRvIII expressing cell line over non-expressing cell lines” value (“fold MFI … over non-expressing cell lines” below) was no less than 10 fold. For the same molecule, in experiment [4], binding was characterised by a dissociation constant (Kd) of 353 nM, the koff was 0.0141 s⁻¹ and the kon was found to be 39900 M⁻¹ s⁻¹.

B2: 32G8 (antibody, V domains shown)
VH: EVNLVESGGGLVKPGGSLRLSCEASGFTFSYAWMSWVRQAPGKGLEWVGRIKSITDGGVIDYAAPVRNRCTISRDDSRNTLYLEMHSLKTEDTAVYYCTTIPGNDDFDMWGQGRMVTVSS
VL: DIVLTQSPLSLSVTPGEPASISCRSSQSLLYSNGKNYLDWFLHKPGQSPQLLIYLGSNRASGVPDRFSGSGSGIDFILKISRVEAEDVGVYYCMQAQQTPITFGQGTRLEIK
notes: as for B1
B2: in experiment [1], the “% positive” value worked out at 98.6% and the MFI is 3730. Moreover, in experiment [2], the binding result is recorded as “no binding (tested: 1000 nM)”. In addition, in experiment [3], the “fold MFI … over non-expressing cell lines” value is no less than 10 fold. Further, in experiment [4], binding was characterised by a dissociation constant (Kd) of 1790 nM, the koff was found to be 0.0122 s⁻¹ and the kon was found to be 6820 M⁻¹ s⁻¹.

B3: 34E7 (antibody, V domains shown)
VH: EVNLVESGGGLVKPGGSLRLSCEASGFTFSYAWMSWVRQAPGKGLEWVGRIKSINDGGATDYASPVRNRFTISRDDSRNMLYLEMHSLKTEDTAVYYCTTIPGNDAFDMWGQGTLVTVSS
VL: DIVLTQSPLSLSVTPGEPASISCRSTQSLLYSNGKNYLDWFLHKPGQSPQLLIFLGSIRASGVPDRFSGSGSGIDFILKISRVEAEDVGVYYCMQAQQTPITFGQGTRLEIK
notes: as for B1
For the molecule B3, in experiment [1], the “% positive” value worked out at 98.5% and the MFI was 4130. Also, the binding result in experiment [2] is on record as “no binding (tested: 1000 nM)”. For the same molecule, the “fold MFI … over non-expressing cell lines” value in experiment [3] is no less than 10 fold. In experiment [4], this molecule showed a Kd of 340 nM, a koff of 0.0128 s⁻¹ and a kon of 37700 M⁻¹ s⁻¹.

B4: 14C11 EGFRvIII specific CAR (other)
chain: QVTLKESGPVLVKPTETLTLTCTVSGFSLNNARMGVSWIRQPPGKALEWFAHIFSTDEKSFRTSLRSRLTLSKDTSKSQVVLTMTNMDPVDTATYYCARDSSNYEGYFDYWGQGILVTVSSGGGGSGGGGSGGGGSGGGGSEIVMTQSPATLSVSPGERATLSCRASQSVSNNLAWYQQKPGQAPRLLIYGASTRATGVPARFSGSDSGTEFSLTISSLQSEDFAVYFCQQYKDWPFTFGPGTKVEIKTTTPAPRPPTPAPTIASQPLSLRPEACRPAAGGAVHTRGLDFACDIYIWAPLAGTCGVLLLSLVITLYCKRGRKKLLYIFKQPFMRPVQTTQEEDGCSCRFPEEEEGGCELRVKFSRSADAPAYQQGQNQLYNELNLGRREEYDVLDKRRGRDPEMGGKPRRKNPQEGLYNELQKDKMAEAYSEIGMKGERRRGKGHDGLYQGLSTATKDTYDALHMQALPPR
notes: Chimeric antigen receptor on primary human T cells
As for B4, the binding result in the experiment with EGFR-mFc is “no binding”.

B5: 20G5 (antibody, V domains shown)
VH: EVQLVESGGDLVKPGGSLRLSCAASGFTFTNAWMSWVRQAPGKGLEWVGRIKSKIDGGTTDYAAPVKGRFIISRDDSKNTLSLQMNSLKTEDTAMYYCTTAPGGPFDYWGQGSLVTVSS
VL: DIVLTQSPLSLPVTPGEPASISCRSSQSLLYSDRRNYLDWFLQKPGQSPHLLIYLGSYRASGVPDRFSGSGSGTDFTLKISRVEAEDVGVYYCMQALQIPITFGQGTRLEIK
notes: as for B1
On to B5, for which, in experiment [1], the “% positive” value was 98.5% and the MFI was 4640. In experiment [2], the binding result was “no binding (tested: 1000 nM)”. In experiment [4], this molecule registered a Kd of 231 nM, a koff of 0.0289 s⁻¹ and a kon of 125000 M⁻¹ s⁻¹.

B6: 26B9 (antibody, V domains shown)
VH: EVQLVESWGVLVKPGGSLRLSCAASGFIFNNAWMSWVRQAPGKGLEWIGRIKSKSDGGTTDYAAPVKDRFTISRDDSKDTLYLQMNGLKTEDTAVYFCTTAPGGPFDYWGQGTLVTVSS
VL: DIVLTQSPLSLPVTPGEPASISCRSSQSLLHRDGFNYLDWFLQKPGQSPQLLIYLASSRASGVPDRFSGSDSGTDFTLKISRVEAEDVGVYYCMQALQTPITFGQGTRLEIK
notes: as for B1
On to B6, for which, in experiment [1], the “% positive” value worked out at 98.6% and the MFI was 5400. Moreover, in experiment [2], the binding result is recorded as “no binding (tested: 1000 nM)”. Moreover, the “fold MFI … over non-expressing cell lines” value in experiment [3] is no less than 10 fold. In experiment [4], this molecule showed a Kd of 244 nM, a koff of 0.032 s⁻¹ and a kon of 131000 M⁻¹ s⁻¹.

B7: h62G7-L6/EQ EGFRvIII specific CAR (other)
chain: DVVMTQSPLSLPVTLGQPASISCKSSQSLLYSNGKTYLNWFQQRPGQSPRRLIYQVSKLDSGVPDRFSGSGSGTDFTLKISRVEAEDVGVYYCGQDTHFPLTFGGGTKVEIKGGGGSGGGGSGGGGSGGGGSQVQLVQSGAEVKKPGASVKVSCKASGYTFTDYTLHWVRQAPGQGLEWMGGIWPITGGTTYNQKFKGRVTMTRDTSTSTVYMELSSLRSEDTAVYYCARGEAQGSWGQGTLVTVSSTTTPAPRPPTPAPTIASQPLSLRPEACRPAAGGAVHTRGLDFACDIYIWAPLAGTCGVLLLSLVITLYCKRGRKKLLYIFKQPFMRPVQTTQEEDGCSCRFPEEEEGGCELRVKFSRSADAPAYQQGQNQLYNELNLGRREEYDVLDKRRGRDPEMGGKPRRKNPQEGLYNELQKDKMAEAYSEIGMKGERRRGKGHDGLYQGLSTATKDTYDALHMQALPPR
notes: as for B4
In the case of B7, in the experiment with EGFR-mFc, the binding result is “no binding”.

B8: 30D8 (antibody, V domains shown)
VH: EVQLVESGGGLVKPGGSLRLSCEASGFTFSDAWMSWVRQAPGKGLEWVGRIKSKTDGGTTDYVVPLNGRFIISRDDSRNTLYLQLNNLKTEDTAVYYCTTVPGSYGYWGQGTLVTVSS
VL: DIVMTQSPLSLPVTPGEPASISCRSSQSLLHNKRNNYLDWFLQKPGQSPQLLIYLASNRASGVPDRFSGGGSGTDFTLKISRVEAEDVGVYYCMQAQQTPITFGQGTRLEIK
notes: as for B1
In the case of B8, in experiment [1], the “% positive” value came out at 98.6% and the MFI was found to be 5160. For the same molecule, the binding result in experiment [2] was “no binding (tested: 1000 nM)”. The “fold MFI … over non-expressing cell lines” value in experiment [3] is no less than 10 fold. Also, in experiment [4], binding was characterised by a dissociation constant (Kd) of 172 nM, the koff worked out at 0.0277 s⁻¹ and the on-rate constant (kon) was 161000 M⁻¹ s⁻¹.

B9: 32G8.HL scFv-Fc protein (Fc fusion)
chain: EVNLVESGGGLVKPGGSLRLSCEASGFTFSYAWMSWVRQAPGKGLEWVGRIKSITDGGVIDYAAPVRNRCTISRDDSRNTLYLEMHSLKTEDTAVYYCTTIPGNDDFDMWGQGRMVTVSSGGGGSGGGGSGGGGSGGGGSDIVLTQSPLSLSVTPGEPASISCRSSQSLLYSNGKNYLDWFLHKPGQSPQLLIYLGSNRASGVPDRFSGSGSGIDFILKISRVEAEDVGVYYCMQAQQTPITFGQGTRLEIK
notes: HL: heavy-chain variable domain at the N-terminus; not shown: human IgG1 Fc moiety
On to B9, for which, in experiment [5], the Kd was 1490 nM, the koff stood at 0.013 s⁻¹ and the kon is 8700 M⁻¹ s⁻¹. Also, in experiment [6], the binding result is on record as “no binding (tested: 1000 nM)”.

B10: 20E12.LH scFv-Fc protein (Fc fusion)
chain: DIVLTQSPLSLSVTPGEPASISCRSSQSLLYSNGKNYLDWFLHKPGQSPQLLIYLGSNRASGVPDRFSGSGSGIDFILKISRVEAEDVGVYYCMQAQQTPITFGQGTRLEIKGGGGSGGGGSGGGGSGGGGSEVNLVESGGGLVKPGGSLRLSCEASGFTFSYAWMSWVRQAPGKGLEWVGRIKSIADGGATDYAAPVRNRFTISRDDSRNTLYLEMHSLKTEDTAVYYCTTIPGNDAFDMWGQGTMVTVSS
notes: LH: light-chain variable domain at the N-terminus; not shown: human IgG1 Fc moiety
As to B10, in experiment [5], the Kd stood at 932 nM, the koff is 0.015 s⁻¹ and the kon was determined as 16000 M⁻¹ s⁻¹. Besides, the binding result in experiment [6] was “no binding (tested: 1000 nM)”.

The record behind these values is US20190144550A1 (Pfizer, published 2019).
